The chains are these.
B1: anti-CNTN4 IgG A13SF74 (antibody, V domains shown)
VH: AVTLDESGGGLQTPGGALSLVCKASGFTLSSYAMQWVRQAPGKGLEWVAGISKGGGSTAYGAAVKGRATISRDNGQSTVRLQLNNLRAEDTATYFCAKTTDSNCCSSDSIDAWGHGTEVIVSS
VL: ALTQPSSVSANPGETVKITCSGNSSGCSWYGWFQQKSPGSALVTVIYDNTNRPSNIPSRFSGSRSGSTATLTITGVQAEDEAIYFCGIADSSGAGIFGAGTTLTVL
notes: human IgG4 (S228P)
B2: anti-CNTN4 IgG A35SF38 (antibody, V domains shown)
VH: AVTLDESGGGLHTPGGALSLVCKASGFTFSSYGMAWVRQAPGKGLEWVAGITSSGSSAGYGPAVKGRATISRDNGQSTVRLQLNNLRAEDTATYYCAKDGYIYSGADSDSIDAWGHGTEVIVSS
VL: ALTQPSSVSANLGGTVKLTCSGSSGSYGWYQQKSPGSAPVTLIYNNNNRPSDIPSRFSGSTSGSTGTLTITGVRAEDEAVYFCGGYDSSTYVAIFGAGTTLTVL
notes: human IgG4 (S228P)
B3: anti-CNTN4 IgG A13WB73 (antibody, V domains shown)
VH: B2 VH with A17V
VL: ALTQPSSVSANLGGTVEITCSGGYSGYGWYQQMSPGSAPVTLTYYNDKRPSNIPSRFSGSKSGSTATLAITGVQAEDEAVYYCGSWDTSTNTPIFGAGTTLTVL
notes: human IgG4 (S228P)
B4: anti-CNTN4 IgG A35WB1 (antibody, V domains shown)
VH: B2 VH
VL: ALTQPSSVSANPGETVKITCSGGSGSYGWYQQKSPGSAPVTVIYNNDQRPSNIPSRFSGSKSGSTATLTITGVQVEDEAVYFCGGWDSNSGAIFGAGTTLTVL
notes: human IgG4 (S228P)
B5: anti-CNTN4 IgG A13SF19 (antibody, V domains shown)
VH: B2 VH with P41S
VL: ALTQPSSVSANLGGTVEITCSGSSSGNYGWYQQKSPGSAPVTVIYYNDERPSDIPSRFSGSKSGSTGTLTITGVQAEDEAVYYCGGYEGSTYVGIFGAGTTLTVL
notes: human IgG4 (S228P)
B6: anti-CNTN4 IgG A35SF13 (antibody, V domains shown)
VH: B2 VH
VL: ALTQPSSVSANPGETVKITCSGGGGSYGWYQQKSPGSALVTVIYNNDNRPSNIPSRLSGSKSGSTATLTITGVRAEDEAVYFCGSADNNGYIAIFGAGTTLTVL
notes: human IgG4 (S228P)
B7: anti-CNTN4 IgG A13SF20 (antibody, V domains shown)
VH: B2 VH
VL: ALTQPSSVSANLGGTVEITCSGGSGSYGWYQQKAPGSAPVTLIYNSDKRPSDIPSRFSGSKSGSTGTLTITGVQAEDEAVYFCGGYDSSAIFGAGTTLTVL
notes: human IgG4 (S228P)
B8: anti-CNTN4 IgG A13SF2 (antibody, V domains shown)
VH: B2 VH with H12Q, V21I
VL: ALTQPSSVSANLGGTVKITCSGGGGSYGWYRQKSPGSAPVTLIYNNNNRPSDIPSRFSGSTSGSTGTLTITGVQADDEAVYFCGGYDSSAGYAALFGAGTTLTVL
notes: human IgG4 (S228P)
B9: anti-CNTN4 IgG A35SF5 (antibody, V domains shown)
VH: B2 VH
VL: ALTQPSSVSANPGETVEITCSGSSGSNYGWYQQKSPGSAPVTLIYYNDNRPSDIPSRFSGSKSGSTGTLTITGVQVEDEAVYYCGAWESSSNPDIFGAGTTLTVL
notes: human IgG4 (S228P)
B10: anti-CNTN4 IgG A13SF7 (antibody, V domains shown)
VH: B2 VH
VL: ALTQPSSVSANLGGTVEITCSGGSGSYGWYQQKSPGSAPVTLIYDNTNRPSNIPSRFSGSTSGSTSTLTITGVQADDEAVYFCGSADTNAAYAAIFGAGTTLTVL
notes: human IgG4 (S228P)
B11: anti-CNTN4 IgG A13SF8 (antibody, V domains shown)
VH: B2 VH
VL: ALTQPSSVSANPGGTVKITCSGSGNYGWYQQKSPGSALVTVIYYNDKRPSDIPSRFSGSTSGSTGTLTITGVQVEDEAVYYCGGYDGYSFASIFGAGTTLTVL
notes: human IgG4 (S228P)
B12: anti-CNTN4 IgG A35WB27 (antibody, V domains shown)
VH: B2 VH
VL: ALTQPSSVSANLGETVKITCSGGYSGYGWYQQKSPGSAPVTVIYYNDKRPSDIPSRFSGSKSGSTGTLTITGVRAEDEAVYFCGSADSSTGYVAIFGAGTTLTVL
notes: human IgG4 (S228P)
B13: anti-CNTN4 IgG A35SF37 (antibody, V domains shown)
VH: B2 VH
VL: ALTQPSSVSANLGGTVKITCSGGSNNYGWYQQKSPGSAPVTVIYYNNKRPSDIPSRFSGSKSGSTATLTITGVQAEDEAVYFCGGYDSSSNSDVYGAGTTLTVL
notes: human IgG4 (S228P)
B14: anti-CNTN4 IgG A35SF3 (antibody, V domains shown)
VH: B2 VH with H12Q, A17G
VL: B7 VL with G23S, L42V, N45D, S46N, D47T, K48N, A90T
notes: human IgG4 (S228P)

The text below walks through data of patent publication US20240182563A1 (GENOME, published 2024).

Residue numbers refer to the chain shown, from its start. Names and notes keep the numbering of the source.

The first test deals with T1, human CNTN4 antigen expressed on the cell membrane of 293FT cells (human, UniProt Q8IWV2 19-1000).
T1 construct: whole, on cells; also called Human CNTN4 transfected cell
T1 sequence (looked up): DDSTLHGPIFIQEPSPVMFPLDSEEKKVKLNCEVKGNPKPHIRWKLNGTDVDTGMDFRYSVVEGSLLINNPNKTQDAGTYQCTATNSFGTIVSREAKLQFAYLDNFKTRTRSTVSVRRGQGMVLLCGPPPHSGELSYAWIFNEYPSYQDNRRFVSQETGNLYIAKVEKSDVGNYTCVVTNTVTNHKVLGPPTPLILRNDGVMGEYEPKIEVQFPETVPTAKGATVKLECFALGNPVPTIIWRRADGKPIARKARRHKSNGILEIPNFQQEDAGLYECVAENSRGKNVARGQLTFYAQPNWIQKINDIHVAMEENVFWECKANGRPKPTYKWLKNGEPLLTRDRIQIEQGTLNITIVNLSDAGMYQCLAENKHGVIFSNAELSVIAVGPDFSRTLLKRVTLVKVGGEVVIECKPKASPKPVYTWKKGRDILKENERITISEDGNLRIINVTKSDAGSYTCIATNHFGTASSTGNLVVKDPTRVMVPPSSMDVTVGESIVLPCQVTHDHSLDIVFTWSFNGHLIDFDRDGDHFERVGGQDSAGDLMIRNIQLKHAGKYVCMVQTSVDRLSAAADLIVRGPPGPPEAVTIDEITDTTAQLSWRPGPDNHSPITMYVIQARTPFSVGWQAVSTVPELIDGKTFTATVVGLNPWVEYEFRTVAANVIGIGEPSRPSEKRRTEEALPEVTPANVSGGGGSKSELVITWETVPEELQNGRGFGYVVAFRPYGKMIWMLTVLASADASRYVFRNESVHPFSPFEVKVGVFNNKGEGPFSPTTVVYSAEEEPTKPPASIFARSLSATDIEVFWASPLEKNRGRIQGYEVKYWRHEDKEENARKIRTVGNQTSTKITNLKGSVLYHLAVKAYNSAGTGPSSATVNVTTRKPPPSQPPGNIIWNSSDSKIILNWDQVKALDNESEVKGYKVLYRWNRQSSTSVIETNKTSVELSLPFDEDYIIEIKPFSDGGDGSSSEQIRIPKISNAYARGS
Put plainly: FACS, 293FT cells transfected with human CNTN4, 40 ug/mL, anti-hFc-PE.
On to B1, for which the Shift % was found to be 84.1%.

Take B2: the Shift % came to 77.9%.

Turning to B3, the Shift % was 86.4%.

Take B4: the Shift % amounted to 83.9%.

On to B5, for which the Shift % was 79.6%.

Regarding B6, the Shift % is 82.1%.

For the molecule B7, the Shift % was 82.2%.

For the molecule B8, the Shift % came out at 83.5%.

Consider B9, for which the Shift % came out at 82.6%.

In the case of B10, the Shift % was 83.2%.

On to B11, for which the Shift % worked out at 90.4%.

In the case of B12, the Shift % was 88.2%.

Regarding B13, the Shift % is 86.6%.

For the molecule B14, the Shift % was found to be 81.9%.

For another test, the target named is T2, human CNTN4-rabbit Fc (human; rabbit, UniProt Q8IWV2 19-1000, limits assumed).
T2 construct: not shown: rabbit Fc
T2 sequence (looked up): T1 sequence (looked up)
Put plainly: ELISA, plate coated with antigen-rabbit Fc, anti-human IgG Fc-HRP. How it is done:
(§1) An ELISA tests were performed on a total of 25 scFv-hCks and a total of 27 IgGs for which the expression was confirmed in Example 1.2. An ELISA plate was coated with 200 ng of antigens (human CNTN4-rabbit Fc or mouse CNTN4-rabbit Fc). 200 ng of a negative control (human antigen-rabbit Fc) for a tagging protein was used. For antibody binding, anti-CNTN4 scFv-hCk was serially diluted from a maximum of 1 μM to 0.001 nM by 1/10×each, and anti-CNTN4 IgG was serially diluted from a maximum of 10 nM to 0.00001 nM by 1/10×each, thereby binding to the antigen. Anti-human kappa-HRP or anti-human IgG Fc-HRP was used as the secondary antibody for antibody detection. Color was developed using ABTS, which is a color developing reagent, and the absorbance at 405 nm was measured.
B1 yielded a 50% effective concentration (EC50) of 0.11 nM.

The molecule B2 yielded an EC50 of 0.01 nM.

As for B3, the 50% effective concentration (EC50) is 0.01 nM.

In turn, B4 returned an EC50 of 0.02 nM.

Regarding B5, a half-maximal effect (EC50) was put at 0.01 nM.

For B6, the midpoint of the response, the EC50, lay at 0.01 nM.

B7 displayed a 50% effective concentration (EC50) of 0.01 nM.

With B8, the 50% effective concentration (EC50) stood at 0.01 nM.

In the case of B9, a half-maximal effect (EC50) was put at 0.01 nM.

B10 had an EC50 of 0.01 nM.

As to B11, a half-maximal response (EC50) required 0.01 nM.

Regarding B12, a half-maximal response (EC50) required 0.01 nM.

The molecule B13 came in with an EC50 of 0.01 nM.

With B14, a half-maximal effect (EC50) was put at 0.01 nM.

The target in the next test is T3, mouse CNTN4-rabbit Fc (mouse; rabbit, UniProt Q69Z26 19-1000, limits assumed).
T3 construct: not shown: rabbit Fc
T3 sequence (looked up): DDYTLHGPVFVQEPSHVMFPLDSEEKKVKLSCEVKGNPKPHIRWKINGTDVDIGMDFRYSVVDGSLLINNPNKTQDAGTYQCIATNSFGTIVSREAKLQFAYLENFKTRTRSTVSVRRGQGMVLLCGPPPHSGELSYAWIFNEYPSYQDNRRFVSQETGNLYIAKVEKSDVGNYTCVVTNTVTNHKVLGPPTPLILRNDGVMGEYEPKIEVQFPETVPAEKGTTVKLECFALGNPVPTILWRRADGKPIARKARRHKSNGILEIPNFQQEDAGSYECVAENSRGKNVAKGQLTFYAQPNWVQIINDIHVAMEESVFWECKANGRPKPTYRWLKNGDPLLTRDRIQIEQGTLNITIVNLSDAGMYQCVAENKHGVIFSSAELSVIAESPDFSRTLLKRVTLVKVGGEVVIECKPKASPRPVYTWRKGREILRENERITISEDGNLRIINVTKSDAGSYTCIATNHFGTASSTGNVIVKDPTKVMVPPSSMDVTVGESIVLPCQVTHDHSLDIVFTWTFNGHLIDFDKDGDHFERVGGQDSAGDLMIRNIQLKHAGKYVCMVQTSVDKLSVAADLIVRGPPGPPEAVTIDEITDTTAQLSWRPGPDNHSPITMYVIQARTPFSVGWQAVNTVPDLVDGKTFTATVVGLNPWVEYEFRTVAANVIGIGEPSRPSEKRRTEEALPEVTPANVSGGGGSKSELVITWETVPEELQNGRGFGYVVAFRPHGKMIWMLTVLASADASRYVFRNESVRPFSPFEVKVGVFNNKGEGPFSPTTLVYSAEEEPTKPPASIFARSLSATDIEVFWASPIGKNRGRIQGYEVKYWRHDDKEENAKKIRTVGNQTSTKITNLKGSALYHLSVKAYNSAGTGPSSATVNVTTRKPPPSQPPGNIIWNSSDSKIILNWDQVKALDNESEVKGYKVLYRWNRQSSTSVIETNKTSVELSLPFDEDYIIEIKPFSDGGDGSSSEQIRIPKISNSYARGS
The test is described as above. The method, then:
as §1
On to B1, for which the EC50 turned out to be 0.12 nM.

Consider B2, for which the EC50 worked out at 0.01 nM.

In turn, B3 displayed an EC50 of 0.01 nM.

As to B4, it took 0.01 nM to reach a half-maximal effect (EC50).

For the molecule B5, the EC50 was found to be 0.01 nM.

Take B6: the EC50 worked out at 0.02 nM.

In turn, B7 returned a half-maximal effective concentration (EC50) of 0.01 nM.

Turning to B8, the EC50 turned out to be 0.01 nM.

B9 returned an EC50 of 0.01 nM.

B10 came in with an EC50 of 0.01 nM.

In the case of B11, the EC50 was 0.01 nM.

For the molecule B12, the EC50 is 0.01 nM.

B13 yielded an EC50 of 0.01 nM.

The molecule B14 showed an EC50 of 0.01 nM.
